Assay results reported in paper PMC9505826, “A Peptide Inhibitor of the Human Cytomegalovirus Core Nuclear Egress Complex” (Pharmaceuticals, 2022).

Biological target: recombinant HCMV pUL50 (His-tagged) (human cytomegalovirus (HCMV)) (UniProt P16791)
Assay: ELISA; competition: pUL53 (1 µg/mL) coated on Immulon plates; peptide in serial dilutions from 10 µM together with His-tagged pUL50 (0.78 µg/mL) for 2.5 h; detection with anti-His-HRP; 0.1 M phosphate buffer pH 7.2, 0.1% BSA, 0.01% Tween 20

Substance: NLS-CPP (acetylated; pUL53 NLS 18-27 joined to HIV-1 Tat 47-59) (peptide)
- IC50: > 10 µM
